Reference: a protein production outcome set (Wang et al. 2014)

Experiment: label from the status in PepcDB records
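Further: failed if final PepcDB status was selected cloned or expressed and not failed if soluble or beyond.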

| Sequence | protein production |
| --- | --- |
| MSDSKEITKVIVTMVVISAVAAALLALTYTPTQAQLKLLQAEQQKEAMKEILPQAADFEPVTGSEVDDDGNPVVLYYKGVDSSGNVVGYVVERNQVGAQGMIQLLAGISSDFSTITGFQVMKHSETPGLGALITTPEFQGQFVDLPVADTSLTKNGGQVDAISGATISSQAVVDALHSAVDYVSAQEG | failed |
| MSDVIEGRLKELGFTLPVAAAPAANYVPFTISGNLLYVSGQLPMESGKIAVTGLVGRDVDVASAQRAAELCAVNILAQVKAALNGDLSKIRRVIKLNGFVASVPEFVEQHLVINGASNLIATVLGEPGRHARAAVGMASLPFNASVEIDAIVEIDV | not failed |
| MSDVISESALKSAKTEKNQKIYWDELKEGEQFSYGHYQVSEHENIDFAKRYDPMEFHVDPEKAKLSPIGALCASGIHTLGIMQRLTFDNIYTNWHIVAGRELRKCQFRLPVFVDDCLTVNMTIAKLSVDTRSDRGNAELTFDVKNAKGKTVLEVEGEIVLQRFPSI | failed |
| MSDVTQQKKRKRSKGEVNPSKPTVDEEITDPSSNEDEQLEVSDEEDALESEEEFEGENPADKRRRLAKQYLENLKSEANDILTDNRNAEEKDLNNLKERTIDEYNNFDAGDLDKDIIASRLKEDVAEQQGRVFRYFGDKLLISEAKQSFTRVGENNLTCISCFQPVLNKYTFEESSNGDKNKGRLFAYTVSKDLQLTKYDITDFSKRPKKLKYAKGGAKYIPTSKHEYENTTEGHYDEILTVAASPDGKYVVTGGRDRKLIVWSTESLSPVKVIPTKDRRGEVLSLAFRKNSDQLYASCADFKIRTYSINQFSQLEILYGHHDIVEDISALAMERCVTVGARDRTAMLWKIPDETRLTFRGGDEPQKLLRRWMKENAKEGEDGEVKYPDESEAPLFFCEGSIDVVSMVDDFHFITGSDNGNICLWSLAKKKPIFTERIAHGILPEPSFNDISGETDEELRKRQLQGKKLLQPFWITSLYAIPYSNVFISGSWSGSLKVWKISDNLRSFELLGELSGAKGVVTKIQVVESGKHGKEKFRILASIAKEHRLGRWIANVSGARNGIYSAVIDQTGF | failed |
| MSDWADLMNDLNKLQHSDAVTTAWQFTEQVPHGRDLGMQVVSVDQGQVCMRLTPQSWMFAHKDTKEICTSVLYSLADSAGGLAVFAGALELMPIATLDLRMDYLRPAIGDRALSAVATCRHLSDDVAFIHCDILSEGNRELLATANATFMRNTQGQQLHAGGPGKESA | failed |
| MSDYYLFAGRLFIAVMYVLSGANKLLFFSHGLDEVKSRNLPFPQLALSATIAVQLICGLAIMAGFQTTTASLLLALFTLATAVLFYDFWNQEGAQRTLMFTGFLEHISIIGGFALLMGAGPGKFVLLP | failed |
| MSEADGLRQRRPLRPQVVTDDGQVPEVKEGSSFSGRVFRMTFLMLAVSLAIPLLGAMMLLESPIDPQSFSFKEPPFMFGVLHPNTKLRQAERLFENQLSGPESIVNIGDVLFTGTADGRVVKLENGEIETIARFGSGPCKTRDDEPTCGRPLGIRAGPNGTLFVVDAYKGLFEVNPQKRSVKLLLSSETPIEGKKMSFVNDLTVTRDGRKIYFTDSSSKWQRRDYLLLVMEATDDGRLLEYDTVTKEVKVLLDQLQFPNGVQLSPEEDFVLVAETTMARIRRVYVSGLMKGGADMFVENMPGFPDNIRPSSSGGYWVAAATIRANPGFSMLDFLSDKPFIKRMIFKMFSQETVMKFVPRYSLVLEVSDSGAFRRSLHDPDGQVVTYVSEAHEHDGYLYLGSFRSPFICRLSLQSI | failed |
| MSEDLMDLSPEEGIERFLRHREPSVRESTMRNAKTRLRFFNEWCEERDIENLNNLTGRDLADFVAWRRGDIAALTLQKQLSTIREALRYWADIEGVDDGLAEKVHAPELEHHHHHH | failed |
| MSEEEQGSGTTTGCGLPSIEQMLAANPGKTPISLLQEYGTRIGKTPVYDLLKAEGQAHQPNFTFRVTVGDTSCTGQGPS | failed |
| MSEELMISPAAPAAPAAGSALTSAQFRKLAEVPPEIEWFANIDSLQTRRAYQNDLRGFMAFAGIVSPEDFRLITRSHVLAWRKRLEEEQLGGATIRRKLAALSSLFEYLCEANAVTHNPVKGVKRPPVESWQGKTPALGDVQARALLEAPNAKTLKGKRDRAILSALLYHGIRREELARLKVKDYNQSRRGVPHLRIKGKGGKMRFIPTHPGTLTLIEEYLEAAGHGHDPDAPLFRPVKNNVHGHTLTALTPDSIYFEVVLKYLRKLGIFGENMGPHVMRATAATNALDNGADIAKVQEWLGHANIATTRIYDHRKTRPEDSPTFKVSY | failed |
| MSEEQHILEVLQSDDAEQVREAAYSAGELRLEAAVPHLVRHLQSQNIGVQEAVDNALRKIGGAAAVAGVIPLLRSDDAPIRNISMDILRDIGRDEFDALKQLLHDEDPDIRIFASDILGTSGSILAVPALCEALLRDPEVNVRYQAAVSLGTLAFPEAADCLNKAMQDEEWVQFSVIEALIKIRAESSVNALVKALDTTSDLVASMIVDALGEMGNLKAVPLLLKRIEKSPTPLRNKIVRAIVSILGKKSLSLLGEREQQRLGAYLLAALDDEDEEVQDAAMVGLASLGQAEATVAVLRLAARLDPDRDHERLEAAIRCIGGIGFNEAVEEALSDENESTILMVVEAAADMNPAEIVPALKRIFWDKGRDAQRAIATQLARIASLEDVDFFLDLLERAEDAHVIKAALHFLGHRARPAGVGERMLALLDHPYDDVKEAALEACIALQDVSLCASFRERFHSGDPLQRMMATYAMGRLDVDGNLDVLREALVDDVPDVRKVALEALAGTCPITPEHLELVVPLMHDPVREVRLALVDLFGACPEESVIGHLLEALDDEDDWVRVRAIEALGRLGRKECVTPLIERVDGAGNLVLLKIIEALGSIGGNMAFRALLALMEHEDPEIQQAAEDAVARLGEQDSEGE | failed |
| MSEFHSEISTLSPAPLWQFFDKICSIPHPSKHEEALAQYIINWATEQGFDVRRDPTGNVFIKKPATPGMENKKGVVLQAHIDMVPQKNEDTDHDFTKDPIQPYIDGEWVTAKGTTLGADNGIGMASCLAVLASKDIKHGPIEVLLTIDEEAGMTGAFGLEAGWLEGDILLNTDSEQEGEVYMGCAGGIDGAMTFDIKRDAIPTGFVTRQLTLKGLKGGHSGCDIHTGRGNANKLLGRFLAGHAQELDLRLVEFRGGSLRNAIPREAFVTVAVPAENQEKLAELFNYYTELLKAELGKVETGIVTFNEEIVTESQAFTAADQQRFIAALNACPNGVMRMSDEIEGVVETSLNVGVITTEENKVTVLCLIRSLIDSGRSQVESMLRSVAELAGAQVEFSGAYPGWKPDADSEIMAIFRDMYEGIYGHKPNIMVIHAGLECGLFKEPYPNMDMVSFGPTIKFPHSPDEKVKIDTVQLFWDQMVALLEAIPEKALEHHHHHH | not failed |
| MSEFRPVPTTDREACQRILQYAFAPETGPVPPDPDGDWPPSLFDQRGLYDGGTLRAVCKLYFFDTTVRGAATTVGGLGAVATPPEHRGQGLAADLCRHALSAYRKADVGFVTLWPFSTPFYHRLGWGTANTYRRFDLPPSALPDPSTAGQLVRLDADDWERLRRVETAAAAGTALSLRRSEAWWRERTLADWDDDGVPYCYGYERDGELQGYVVYTVADDANNTLSVSNFAAVDEEARRALFAFLGHHGAQIERVTLQLPPDTDLFHRVDDPGAVDCTVEAGPMVRLTDVDYLERLDWPGGDLDCTLSVNDPLLDHNDGLFRLSVNGGTATVDPLPASDSKADVAVDIATLSQLAVGTHGVDAAERLAGLEMFDDSVRGPLADVFQPESVYLGEFF | failed |
| MSEKELELLARIEELERHTWRNSAILRAVAMVAGTAMIGIIVASGVVGGGHGSHWTGPAWNTMWLYGLFAANAVSMFWTTHKD | failed |
| MSEKKAVIGVVTISDRASKGIYEDISGKAIIDYLKDVIITPFEVEYRVIPDERDLIEKTLIELADEKGCSLILTTGGTGPAPRDVTPEATEAVCEKMLPGFGELMRQVSLKQVPTAILSRQTAGIRGSCLIVNLPGKPQSIKVCLDAVMPAIPYCIDLIGGAYIDTDPNKVKAFRPKK | not failed |
| MSELFSNDNIFLNVNVNSQNEAIEKAGKALVDSGAVTDAYIQAMKDREQVVSTFMGNGLAIPHGTDEAKTNVIHSGLTLLQIPEGVDWDGEVVKVVVGIAGKDGEHLDLLSKIAITFSEEENVDRIVQAKSAEEIKQVFEEADA | failed |
| MSERAGEKKLDLLITGVGGQGAILASDIIGKAAVISGIPIRAAETHGMAQRGGSVVNHIRLGSDLGSMIPKKGADIMLALEPMEAVRYLDFLKDGGVIIVNTQSIIPVTVTSGLSKYPEVQEILDALSEKYVVKAFNADELAHEAGSRLAMNVAMVGAVSGYLPISKEVLLESVKVLVPKKTIEINIRAFEMGREEVEES | not failed |
| MSERIVPSGDVELWSDDFGDPADPALLLVMGGNLSALGWPDEFARRLADGGLHVIRYDHRDTGRSTTRDFAAHPYGFGELAADAVAVLDGWGVDRAHVVGLSMGATITQVIALDHHDRLSSLTMLLGGGLDIDFDANIERVMRGEPTLDGLPGPQQPFLDALALMNQPAEGRAAEVAKRVSKWRILSGTGVPFDDAEYARWEERAIDHAGGVLAEPYAHYSLTLPPPSRAAELREVTVPTLVIQAEHDPIAPAPHGKHLAGLIPTARLAEIPGMGHALPSSVHGPLAEVILAHTRSAA | not failed |
| MSERVKVAILGSGNIGTDLMYKLLKNPGHMELVAVVGIDPKSEGLARARALGLEASHEGIAYILERPEIKIVFDATSAKAHVRHAKLLREAGKIAIDLTPAARGPYVVPPVNLKEHLDKDNVNLITCGGQATIPLVYAVHRVAPVLYAEMVSTVASRSAGPGTRQNIDEFTFTTARGLEAIGGAKKGKAIIILNPAEPPILMTNTVRCIPEDEGFDREAVVASVRAMEREVQAYVPGYRLKADPVFERLPTPWGERTVVSMLLEVEGAGDYLPKYAGNLDIMTASARRVGEVFAQHLLGKPVEEVVA | not failed |
| MSETAIQTKTQARQRKVFAHHHVQHYRSQLERRISHSPQFREGKVINAMPHITATPSWWQTAWSYFGGRAQLKPNAQLPVAPLNLQALQTRSKALRVTWLGHSSLFIEVDGLRVLTDPVFDYASPWIAKAWFARNLPNSGVREQLPLPDVIVISHDHYDHLEQASVVYYAAHSVTFYVPLGVGQHLIRWGVSPERIIEFDWWEQIKREGVEFICTPANHNSGRYYLDHNATLWCSWVIKGHQETLYFSGDSAYDTHFAKIAERCGPIDLACLEVAADVKQHQGYPVENWGHMQAKHTVQAFRDLQAKKLLPIHWATYELFTHQWDEPIADLVKHCQEQSITLLTPMAGESLTMANHSASHAWWQGLETEPMSGARYWQMGLACSLLLLLMVV | failed |
| MSETDLLLKMVRQPVKLYSVATLFHEFSEVITKLEHSVQKEPTSLLSEENWHKQFLKFAQALPAHGSASWLNLDDALQAVVGNSRSAFLHQLIAKLKSRHLQVLELNKIGSEPLDLSNLPAPFYVLLPESFAARITLLVQDKALPYVRVSFEYWHA | not failed |
| MSEWMKKSPLEWEDYVYKEVRVIACEKEYKGWLLTTDPVSANIVLVNFLEDGRLSVTGIMGHSVQTVETISEGDHRVREKLMHVFASGDCKGYSPEDLEEKRTSLKKWLEKNHIPVTEQGDAQRTLCVAGVLTIDPPYAPENCSSSNEIILSRIQDLIQGHLSASQ | failed |
| MSEYLPGIIWLVVLLVVNAFFVGAEFAVISARRSQIEPKAEAGSKAAKTTLWAMEHATLMLATSQLGITVCSLVILNVSEPAIHHLLEIPLGLTSLSGEAIGIIAFVAALLLVTFLHVVLGEMVPKNISFSVPTRAALILAPPLVMVARILKPVIWTLNGIANSILRLFKVEPKDEATSAYTLDEVANIVEQSTRDGMLSDTSGTLTAAFEFTSKTVADVEVPIGEMVLLPATSTPADIQRAVAEHGYSRYILTDDDGTPTGYLHLKDVMDLTTREKFDQPVPAKRIRKLASAYSGSELEDALATMRRSGAHVARVFDAAGNTTGVLFLEDIIEELVGEVQDATST | not failed |
